The values that follow are results of earlier work, collected in paper PMC4443854.

For orientation: Kd means the free concentration of one partner at which half of the binding sites on the other are occupied at equilibrium, for simple one-to-one binding.

This data set deals with actin filaments (F-actin) (Oryctolagus cuniculus) (UniProt P68135).

As to AIP1 (from UniProt O75083), the Kd was 2.5 µM.
